In patent publication US20160355553A1 (Janssen / Centocor, published 2016):

Assays:
[1] = biological target: hemagglutinin of influenza virus A/Brisbane/59/2007 (H1) (influenza A virus H1N1, UniProt B4URD6 18-565); test: cell-based or functional assay
[2] = biological target: hemagglutinin of influenza virus A/Env/MPU3156/05 (H2) (influenza A virus H2); test: cell-based or functional assay
[3] = biological target: hemagglutinin of influenza virus A/EW/MPH571/08 (H8) (influenza A virus H8); test: cell-based or functional assay
[4] = biological target: hemagglutinin of influenza virus A/Hong Kong/1073/99 (H9) (influenza A virus H9); test: cell-based or functional assay
[5] = biological target: hemagglutinin of influenza virus A/Hong Kong/1/68 (H3) (influenza A virus H3N2, UniProt Q91MA7 17-566); test: cell-based or functional assay
[6] = biological target: hemagglutinin of influenza virus A/Johannesburg/33/94 (H3) (influenza A virus H3); test: cell-based or functional assay
[7] = biological target: hemagglutinin of influenza virus A/Panama/2007/1999 (H3) (influenza A virus H3); test: cell-based or functional assay
[8] = biological target: hemagglutinin of influenza virus A/Chick/Germany/N/49 (H10) (influenza A virus H10); test: cell-based or functional assay
[9] = biological target: H1 Full-length (A/Brisbane/59/2007) (influenza A virus H1N1, UniProt B4URD6 18-565); test: FACS on HEK293F
[10] = biological target: H1 FL HA A/Puerto Rico/8/1934 (influenza A virus H1N1, UniProt P03452 18-565); test: FACS on HEK293F
[11] = biological target: miniHA cluster1 (A/Brisbane/59/2007) (influenza A virus H1N1, UniProt A8C8J4 18-565); test: FACS on HEK293F
[12] = biological target: miniHA cluster1+2 (A/Brisbane/59/2007) (influenza A virus H1N1, UniProt A8C8J4 18-565); test: FACS on HEK293F
[13] = biological target: miniHA cluster1+3 (A/Brisbane/59/2007) (influenza A virus H1N1, UniProt A8C8J4 18-565); test: FACS on HEK293F
[14] = biological target: miniHA cluster1+2+3 (A/Brisbane/59/2007) (influenza A virus H1N1, UniProt A8C8J4 18-565); test: FACS on HEK293F
[15] = biological target: miniHA cluster1+2+3+4 (A/Brisbane/59/2007) (influenza A virus H1N1, UniProt A8C8J4 18-565); test: FACS on HEK293F
H1-PR8-dH1 = H1-PR8-dH1 (influenza A virus H1N1, UniProt P03452 18-565); test: FACS on HEK293F
[16] = biological target: HK68 H3mini2a-linker+cl9_+10+12+16+CG7-GCN4T (influenza A virus H3N2, UniProt Q91MA7 17-566); test: FACS on HEK293F
[17] = biological target: HK68 H3mini2a-linker+cl9_+10+12+19+GCN4T (influenza A virus H3N2, UniProt P12584 1-550); test: FACS on HEK293F
[18] = biological target: HK68 H3mini2a-linker+cl9_+10+12+17+CG7-GCN4T (influenza A virus H3N2, UniProt Q91MA7 17-566); test: FACS on HEK293F
[19] = biological target: H3 HK68 mini2a-linker2+cl9_+10+12+GCN4T (influenza A virus H3N2, UniProt Q91MA7 17-566); test: FACS on HEK293F
HK68 H3m2-cl9+10+12 = HK68 H3m2-cl9+10+12 (influenza A virus H3N2, UniProt Q91MA7 17-566); test: FACS on HEK293F [D00014 FIG. 10B]
HK68 H3m2-cl9+10+11+13 = HK68 H3m2-cl9+10+11+13 (influenza A virus H3N2, UniProt Q91MA7 17-566); test: FACS on HEK293F [D00014 FIG. 10B]
[20] = biological target: HK68 H3m2-cl9+10+11+12-tri (influenza A virus H3N2, UniProt Q91MA7 17-566); test: FACS on HEK293F [D00014 FIG. 10B]
[21] = biological target: HK68 H3m2-cl9+10+11+13-tri (influenza A virus H3N2, UniProt Q91MA7 17-566); test: FACS on HEK293F [D00014 FIG. 10B]
[22] = biological target: HK68 H3m2-cl9+10+11+12-GCN4 (influenza A virus H3N2, UniProt Q91MA7 17-566); test: FACS on HEK293F [D00014 FIG. 10B]
[23] = biological target: HK68 H3m2-cl9+10+11+13-GCN4 (influenza A virus H3N2, UniProt Q91MA7 17-566); test: FACS on HEK293F [D00014 FIG. 10B]
[24] = biological target: H3 Full-length A/Hong Kong/1/1968 (influenza A virus H3N2, UniProt Q91MA7 17-566); test: FACS on HEK293F [D00014 FIG. 10B]
HK68 H3m2-cl9 = HK68 H3m2-cl9 (influenza A virus H3N2, UniProt Q91MA7 17-566); test: FACS on HEK293F [D00014 FIG. 10B]
HK68 H3m2-cl9+10 = HK68 H3m2-cl9+10 (influenza A virus H3N2, UniProt Q91MA7 17-566); test: FACS on HEK293F [D00014 FIG. 10B]

B1: CR9114 (antibody, V domains shown)
VH: QVQLVQSGAEVKKPGSSVKVSCKSSGGTSNNYAISWVRQAPGQGLDWMGGISPIFGSTAYAQKFQGRVTISADIFSNTAYMELNSLTSEDTAVYFCARHGNYYYYSGMDVWGQGTTVTVSS
VL: SYVLTQPPAVSGTPGQRVTISCSGSDSNIGRRSVNWYQQFPGTAPKLLIYSNDQRPSVVPDRFSGSKSGTSASLAISGLQSEDEAEYYCAAWDDSLKGAVFGGGTQLTVL
virus neutralization assay on MDCK cells, geomean IC50 [1]: 2.6 µg/mL | virus neutralization assay on MDCK cells, geomean IC50 [2]: 8.8 µg/mL | virus neutralization assay on MDCK cells, geomean IC50 [3]: 8.8 µg/mL | virus neutralization assay on MDCK cells, geomean IC50 [4]: 4.4 µg/mL | virus neutralization assay on MDCK cells, geomean IC50 [5]: 19 µg/mL | virus neutralization assay on MDCK cells, geomean IC50 [6]: 21.9 µg/mL | virus neutralization assay on MDCK cells, geomean IC50 [7]: 39.9 µg/mL | virus neutralization assay on MDCK cells, geomean IC50 [8]: 15.7 µg/mL

B2: CR8057 (antibody, V domains shown)
VH: EVQLVESGGGLVQPGGSLRLSCAASGFTDSVIFMSWVRQAPGKGLECVSIIYIDDSTYYADSVKGRFTISRHNSMGTVFLEMNSLRPDDTAVYYCATESGDFGDQTGPYHYYAMDV
VL: QSALTQPASVSGSPGQSITISCTGSSGDIGGYNAVSWYQHHPGKAPKLMIYEVTSRPSGVSDRFSASRSGDTASLTVSGLQAEDEAHYYCCSFADSNILI
binding result [9]: no binding (tested: 5 ug/ml) | binding result [10]: no binding (tested: 5 ug/ml) | binding result [11]: no binding (tested: 5 ug/ml) | binding result [12]: no binding (tested: 5 ug/ml) | binding result [13]: no binding (tested: 5 ug/ml) | binding result [14]: no binding (tested: 5 ug/ml) | binding result [15]: no binding (tested: 5 ug/ml) | binding result (H1-PR8-dH1): no binding (tested: 5 ug/ml) | binding result [16]: no binding (tested: 5 ug/ml) | binding result [17]: no binding (tested: 5 ug/ml) | binding result [18]: no binding (tested: 5 ug/ml) | binding result [19]: no binding (tested: 5 ug/ml) | binding result (HK68 H3m2-cl9+10+12): no binding (tested: 5 ug/ml) | binding result (HK68 H3m2-cl9+10+11+13): no binding (tested: 5 ug/ml) | binding result [20]: no binding (tested: 5 ug/ml) | binding result [21]: no binding (tested: 5 ug/ml) | binding result [22]: no binding (tested: 5 ug/ml) | binding result [23]: no binding (tested: 5 ug/ml) | binding result [24]: no binding (tested: 5 ug/ml) | binding result (HK68 H3m2-cl9): no binding (tested: 5 ug/ml) | binding result (HK68 H3m2-cl9+10): no binding (tested: 5 ug/ml)
